Seven molecules from PMC5600425 can be followed below.

Read-outs that look alike come from different tables or passages of the source.

The target in data set [1] is T1, AgrA DBD (LytTR domain) (Staphylococcus aureus, UniProt Q5HEG2 138-238).
T1 sequence: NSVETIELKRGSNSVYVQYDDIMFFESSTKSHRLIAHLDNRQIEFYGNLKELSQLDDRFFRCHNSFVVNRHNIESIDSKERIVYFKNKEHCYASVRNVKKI
The data set is described as follows: X-ray crystallography.

Data set [2] concerns the target T2, AgrA~P (Staphylococcus aureus COL, UniProt Q5HEG2 1-238).
T2 sequence: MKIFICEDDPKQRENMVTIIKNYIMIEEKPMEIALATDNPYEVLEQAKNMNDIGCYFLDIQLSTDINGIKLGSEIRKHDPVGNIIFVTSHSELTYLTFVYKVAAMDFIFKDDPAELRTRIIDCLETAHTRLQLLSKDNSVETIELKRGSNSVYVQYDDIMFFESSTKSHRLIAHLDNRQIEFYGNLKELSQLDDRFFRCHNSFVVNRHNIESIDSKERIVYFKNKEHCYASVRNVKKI
The data set is described as follows: competition.

The target of data set [3] is T3, AgrA (Staphylococcus aureus COL, UniProt Q5HEG2 1-238).
T3 sequence: T2 sequence
The data set is described as follows: competition.

Data set [4] addresses T3, AgrA. The data set is described as follows: SPR.
The target of data set [5] is T2, AgrA~P. The data set is described as follows: SPR. For orientation: Surface plasmon resonance follows binding to a sensor surface in real time, without labels.
Data set [6] deals with T1, AgrA DBD (LytTR domain). The data set is described as follows: X-ray crystallography. The source holds these as a separate data set.
The target in data set [7] is T1, AgrA DBD (LytTR domain). The data set is described as follows: X-ray crystallography. The source holds these as a separate data set.
Data set [8] has as its target T1, AgrA DBD (LytTR domain). The data set is described as follows: X-ray crystallography. This is another data set of the same source.

B1: P2_S2 (dsDNA)
DNA 1: TTTAACAGTTAAGTAT
DNA 2: AATACTTAACTGTTAA
Turning to B1, the binding result in the data set with AgrA DBD (LytTR domain) [1] is listed as “binds”.

B2: P3 promoter (SPR) (dsDNA)
DNA 1: TTCTTAACTAGTCGTTTTTTATTCTTAACTGTAA
DNA 2: TTACAGTTAAGAATAAAAAACGACTAGTTAAGAA
On to B2, for which the binding result in the data set with AgrA~P [2] and with AgrA [3] was “binds” each time.

B3: P2-P3 intergenic region (negative control) (dsDNA)
DNA 1: TTTTTATGTTAAAATATTAAATACAAATTAC
DNA 2: GTAATTTGTATTTAATATTTTAACATAAAAA
Take B3: the binding result with AgrA [4] and in the data set with AgrA~P [5] was “no binding” throughout.

B4: P2_S1 (dsDNA)
DNA 1: TCCTACAGTTAGGCAA
DNA 2: ATTGCCTAACTGTAGG
Take B4: the binding result in the data set with AgrA DBD (LytTR domain) [6] is given as “binds”.

B5: P1 promoter (SPR) (dsDNA)
DNA 1: TCGAAATACCCGATGAAGTAAGTAGCATTAACTT
DNA 2: AAGTTAATGCTACTTACTTCATCGGGTATTTCGA
Consider B5, for which the binding result in the data set with AgrA [3] is “binds”.

B6: P3_S2 (dsDNA)
DNA 1: ATTTACAGTTAAGAAT
DNA 2: AATTCTTAACTGTAAA
On to B6, for which the binding result with AgrA DBD (LytTR domain) [7] is reported as “binds”.

B7: P3_S1 (dsDNA)
DNA 1: TCGACTAGTTAAGAAA
DNA 2: ATTTCTTAACTAGTCG
For B7, the binding result with AgrA DBD (LytTR domain) [8] is recorded as “binds”.
